This assay deals with DNA polymerase II (Pol II) of E. coli (E. coli, UniProt P21189 1-783). Description: SPR.
DNA polymerase II (Pol II) of E. coli, sequence (P21189 whole entry): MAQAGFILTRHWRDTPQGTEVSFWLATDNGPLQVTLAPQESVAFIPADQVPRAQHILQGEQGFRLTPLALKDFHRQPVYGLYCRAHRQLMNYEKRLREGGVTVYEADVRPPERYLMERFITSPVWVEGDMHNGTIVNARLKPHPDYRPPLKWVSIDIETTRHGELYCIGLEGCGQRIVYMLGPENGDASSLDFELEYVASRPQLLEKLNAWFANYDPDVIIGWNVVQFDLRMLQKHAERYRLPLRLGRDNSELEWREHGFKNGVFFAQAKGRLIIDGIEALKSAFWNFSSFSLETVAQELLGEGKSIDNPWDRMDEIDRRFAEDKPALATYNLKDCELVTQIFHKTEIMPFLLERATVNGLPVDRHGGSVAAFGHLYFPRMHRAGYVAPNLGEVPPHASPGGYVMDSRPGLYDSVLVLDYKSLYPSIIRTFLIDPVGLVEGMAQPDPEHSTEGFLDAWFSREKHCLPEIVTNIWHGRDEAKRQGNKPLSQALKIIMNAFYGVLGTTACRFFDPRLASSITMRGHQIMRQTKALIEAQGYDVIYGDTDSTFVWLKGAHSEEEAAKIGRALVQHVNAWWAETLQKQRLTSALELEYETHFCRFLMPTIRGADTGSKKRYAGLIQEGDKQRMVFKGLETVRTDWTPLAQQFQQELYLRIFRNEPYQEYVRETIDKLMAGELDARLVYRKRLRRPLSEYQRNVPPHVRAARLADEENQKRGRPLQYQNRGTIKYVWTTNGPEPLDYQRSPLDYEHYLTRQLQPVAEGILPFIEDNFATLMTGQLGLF

B1: mutant β^148–152 sliding clamp, N-terminally His6 and cAMP-dependent kinase motif tagged (natural protein, E. coli)
chain: MKFTVEREHLLKPLQQVSGPLGGRPTLPILGNLLLQVADGTLSLTGTDLEMEMVARVALVQPHEPGATTVPARKFFDICRGLPEGAEIAVQLEGERMLVRSGRSRFSLSTLPAADFPNLDDWQSEVEFTLPQATMKRLIEATQFSMAAAAAAYYLNGMLFETEGEELRTVATDGHRLAVCSMPIGQSLPSHSVIVPRKGVIELMRMLDGGDNPLRVQIGSNNIRAHVGDFIFTSKLVDGRFPDYRRVLPKNPDKHLEAGCDLLKQAFARAAILSNEKFRGVRLYVSENQLKITANNPEQEEAEEILDVTYSGAEMEIGFNVSYVLDVLNALKCENVRMMLTDSVSSVQIEDAASQSAAYVVMPMRL
Take B1: the Kd is 182 nM, the koff came out at 0.00273 s⁻¹ and the kon amounted to 15100 M⁻¹ s⁻¹.

Source of the values: article PMC2670953 (Journal of molecular biology, 2009).
